Experimental data taken from patent publication US5126134A, “Pharmaceutically active combination” (Ciba-Geigy Corporation, priority 1988, dated 1992).

Tests used:
[1] = tested on: preformed non-radioactive thrombi in the jugular vein; experiment: Rabbit jugular vein thrombosis model: inhibition of thrombus accretion during thrombolysis with t-PA; type: in vivo, New Zealand white rabbits; conditions: FIG. 1; three hours infusion of t-PA alone or along with heparin (0.75 mg/kg)
Protocol: The experiments are performed with New Zealand white rabbits (weighing 2.3-3.5 kg) anaesthesized by intravenous (marginal ear vein) injection of 30 mg/kg sodium pentobarbital. Through a paramedical incision of the neck, the jugular veins and the right carotid artery are exposed. The right carotid artery is cannulated with a 1.5 mm diameter polyethylene cannula for blood sampling. The two jugular veins are isolated, cleared over a distance of 2 cm, small side branches are ligated. Each jugular segment is emptied of blood and blood flow is temporarily occluded both proximally and distally by two angiostaths, 1.5 cm apart. A 10 cm length 3.0 TiCron braided polyester suture, presoaked in a collagen solution, is introduced lengthwise in the lumen of the isolated jugular vein for a distance of 4 cm to avoid the embolization of the thrombus to be produced. […] The effects of standard heparin and recombinant desulfato hirudin in preventing thrombus extension during thrombolysis with t-PA are assessed as their ability to inhibit the accretion of ^125 I-fibrinogen onto autologous non-radioactive thrombi preformed in the jugular vein of rabbits. […] The ratio of the radioactivity of the thrombus to the circulating fibrinogen radioactivity is used to quantify thrombus size, which is then expressed as μg or ^125 I-fibrinogen accreted onto the thrombus.

[2] = tested on: 125I-fibrinogen labelled thrombi in the jugular vein; experiment: Rabbit jugular vein thrombosis model: enhancement of t-PA induced lysis; type: in vivo, New Zealand white rabbits; conditions: 0.5 mg t-PA infused i.v. over 3 hours, mean of n animals
Protocol: The experiments are performed with New Zealand white rabbits (weighing 2.3-3.5 kg) anaesthesized by intravenous (marginal ear vein) injection of 30 mg/kg sodium pentobarbital. Through a paramedical incision of the neck, the jugular veins and the right carotid artery are exposed. The right carotid artery is cannulated with a 1.5 mm diameter polyethylene cannula for blood sampling. The two jugular veins are isolated, cleared over a distance of 2 cm, small side branches are ligated. Each jugular segment is emptied of blood and blood flow is temporarily occluded both proximally and distally by two angiostaths, 1.5 cm apart. A 10 cm length 3.0 TiCron braided polyester suture, presoaked in a collagen solution, is introduced lengthwise in the lumen of the isolated jugular vein for a distance of 4 cm to avoid the embolization of the thrombus to be produced. 150 μl of citrated rabbit blood containing 5 μl of ^125 I-fibrinogen (approx. 500 000 cpm) is then aspirated in a 1 ml tubercoline syringe containing 50 μl (5 I.U.) of thrombin and 10 μl of CaCl2 (0.25M). […] At the end of the infusion, the thrombi remaining in the vessel are removed and their size is determined by measuring the amount of residual ^125 I-labeled fibrinogen remaining in the thrombi and comparing the results with those of the saline controls.

B1: t-PA: tissue-type plasminogen activator derived from melanoma cell cultures (BioResponse); infused with saline (protein, UniProt P00750 36-562, looked up)
Tissue-type plasminogen …: SYQVICRDEKTQMIYQQHQSWLRPVLRSNRVEYCWCNSGRAQCHSVPVKSCSEPRCFNGGTCQQALYFSDFVCQCPEGFAGKCCEIDTRATCYEDQGISYRGTWSTAESGAECTNWNSSALAQKPYSGRRPDAIRLGLGNHNYCRNPDRDSKPWCYVFKAGKYSSEFCSTPACSEGNSDCYFGNGSAYRGTHSLTESGASCLPWNSMILIGKVYTAQNPSAQALGLGKHNYCRNPDGDAKPWCHVLKNRRLTWEYCDVPSCSTCGLRQYSQPQFRIKGGLFADIASHPWQAAIFAKHRRSPGERFLCGGILISSCWILSAAHCFQERFPPHHLTVILGRTYRVVPGEEEQKFEVEKYIVHKEFDDDTYDNDIALLQLKSDSSRCAQESSVVRTVCLPPADLQLPDWTECELSGYGKHEALSPFYSERLKEAHVRLYPSSRCTSQHLLNRTVTDNMLCAGDTRSGGPQANLHDACQGDSGGPLVCLNDGRMTLVGIISWGLGCGQKDVPGVYTKVTNYLDWIRDNMRP
modifications: melanoma cell derived
notes: infused with saline
[1]
  125I-fibrinogen accreted onto the thrombus: 52 µg
[2]; First set of experiments, hirudin 1 mg/kg
  % lysis: 44%
[2]; Second set of experiments, heparin 0.75 mg/kg
  % lysis: 37%
